Experiment [1] concerns the target human Nogo 66 receptor 1 (human) (UniProt Q9BZR6). Description: flow cytometry on cells.
Experiment [2] concerns the target junctional adhesion molecule-A (human) (UniProt Q9Y624). Put plainly: flow cytometry on cells. On the technique in general: Flow cytometry measures light scatter and fluorescence of single cells or particles in a stream.

The record followed here is paper doi:10.1101/2021.07.22.453368.

UniProt Q9Y624, sequence (Q9Y624 28-299): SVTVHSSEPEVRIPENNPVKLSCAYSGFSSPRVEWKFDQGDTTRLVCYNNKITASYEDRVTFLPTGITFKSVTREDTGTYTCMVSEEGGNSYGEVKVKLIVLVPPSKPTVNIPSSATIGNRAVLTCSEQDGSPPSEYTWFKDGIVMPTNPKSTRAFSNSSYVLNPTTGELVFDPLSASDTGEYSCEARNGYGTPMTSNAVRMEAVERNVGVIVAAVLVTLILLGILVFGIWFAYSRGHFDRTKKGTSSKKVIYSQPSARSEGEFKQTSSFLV
UniProt Q9BZR6, sequence (Q9BZR6 27-447): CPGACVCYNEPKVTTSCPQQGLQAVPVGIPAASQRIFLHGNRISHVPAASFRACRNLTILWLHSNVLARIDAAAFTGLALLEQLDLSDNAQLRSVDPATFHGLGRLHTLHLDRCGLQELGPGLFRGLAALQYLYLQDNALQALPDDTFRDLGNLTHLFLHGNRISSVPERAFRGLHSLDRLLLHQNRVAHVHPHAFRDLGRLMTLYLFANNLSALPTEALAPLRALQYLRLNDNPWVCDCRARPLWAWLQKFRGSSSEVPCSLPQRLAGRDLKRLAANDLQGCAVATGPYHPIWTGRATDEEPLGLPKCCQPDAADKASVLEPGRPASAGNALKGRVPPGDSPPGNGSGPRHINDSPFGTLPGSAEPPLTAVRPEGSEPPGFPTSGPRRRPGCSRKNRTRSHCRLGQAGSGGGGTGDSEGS

For reovirus T3SA- virions (complex), the percent of receptor-expressing cells bound by reovirus in experiment [1] and in experiment [2] was > 50% each time.
